Measured values from patent US10513713B2, “Modified host cells having tolerance to α-olefins” (priority 2014, dated 2019).

B1: Pseudoalteromonas haloplanktis TAC125: heterologous RND efflux pump, AcrB homolog from Pseudoalteromonas haloplanktis TAC125 (protein, listed as Pseudoalteromonas haloplanktis)
chain: MSRYFIDKPIFAWVLAIIVMLAGILAVKSLPIAQYPSIAPPAISITANYPGASAQTLEDSVTQVIEQKMKGLDGLLYMSSTSESNGSATLTLTFNADTDPDIAQVQVQNKLATATPLLPEEVQRQGVVVAKAARNFLLVLAFVSKDGSMTNIDIGDYVASNVQDIVSRVDGVGEAQLFGSQYAMRIWLDPAKLQNFKLTPNDIGAAITAQNAQVSAGQLGGMPAIAGQQLNATITAQSRLQTPEQFENILVKTNSDGSVVRLKDVARVELGGENYGVVARYNGDPAAGIGIKLASGANALDTAEGVKKALEDLKPFFPEGLDVAIPYDTTPFVSLSIEKVVHTLIEAVILVFVVMYLFLQNFRATLIPTIAVPVVLLGTFAILYTFGYSINTLTMFAMVLAIGLLVDDAIVVVENVERLMTEEKLSALDATRKSMDEIKGALVGIAMVLSAVFIPMAFFSGSTGVIYRQFSITIVSAMGLSVLVALILTPALCATLLKPSHVHDKTSFIGRFFSGFNRGFDKTNRGAQGIVGRMISQSKRYLLIYGVLVGGMVYVFSSLPTAFLPDEDQGILFNQVMLPAGSTIEQTLGVVEKVENHYLNDQAEAVGSIFTVTGFSFAGSGQNSAIGFVNLKHWDERQRDDLSVNAVAGKGMGYFSTIKEAFVFAFPPPAIVELGTANGFNMFLQDRVGLGHDELLNARNMLLGMASKSPVLAGVRPNGQEDMPELQLDIDLAKAEALGVTQTDINSTLSTAWGSRYVNDFIDRGRVKKVYMQGEADSRMVPEDLNKWYVRNNNGDMVPFAAFASSHWSYGSPRLERYNGFSAMEIQGSAAPGYSTGQAMDEMERLVKQLPNGIASEWSGISYQERSSGGQAPLLYGLSLLFVFLCLAALYESWSVPFAVMIIVPLGIFGAIMAALIGNLSNDIYLQVGLLTTIGLASKNAILIVEFAIHKMEEGLSLVDAAIAAVKLRLRPVLMTSLAFICGVVPLAIASSAGSGAQNALGISIIGGTLAASTLVVLFVPLFFVLVRKTFSSKSAVATKESE
B2: Marinobacter aqueolei EPL: heterologous RND efflux pump, AcrB homolog from Marinobacter aqueolei EPL (protein, listed as Marinobacter aqueolei)
chain: MPRFFIERPIFAWVVALMLMLGGGLAVKNLAVNQFPDVAPPAIALSVNYPGASAQTVQDTVVQVIEQQLNGLDGLRYISSESNSDGSMTIIATFEQGTDPDIAQVQVQNKLQLANPLLPEEVQRQGIRVSKYKVNFFTVFALTSPDGKYTQGDLADYIVSNIQDPVARTQGVGDFLLFGSQYAMRLWLDPEKLNSYQLTPQDVINSVRAQNVQVSAGQLGGLPTAEGVQLQATVIGKQRMKTAEEFENILLKVNPDGSQVRLADVAEVNLGNENYATTGKYNGAPAAGMALRLATGANQLETAGRVKETLAELERFLPEGVEIVFPYDTTPVVSASIETVAMTLIEAVVLVFLVMFLFLQSWRATIIPTLAVPVVLLATFGVLYAFGFTVNVMTMFAMVLAIGLLVDDAIVVVENVERLMEEEGLSPKEAAKKSMDQISGALLGIGLVISAVFLPMAFFGGSTGVIYRQFSVTIISAMSFSVLVAFIFTPALCATLLKPGDQHVRKGFFGWFNRTFDRSADRYKSGVSYLIKRKGRFMGVYLLLVVAVGFLFKGLPTAFLPDEDQGVMIVMVQLPTNATGERTEAVLAEAGNYLLEEESEVVKSVMSVRGFNFAGRGQNSGILFVDLKPFADRESFAQSVFALAGRSGARFAQIKDAIVFPIVPPAILELGNATGFDLYLKDNGAIGHHALMAATNEFISRANAAPELNMVRHNGLPDEPQYQVIIDDEKARLLQVSIADINATMSAAWGSSYVNDFLHNGRVKKVYVQGKPDSRLAPEDFDKWFVRNAQGEMVPFAAFATGEWVFGSPRLQRYQGLPATQIQGAPANGYSTGDAMAALERIAADLPQGLGLEYTGLSFEEKQAGNQAMMLYLLSILVVFLCLAALYESWSIPFAVIMLVPLGVLGAVLATMARGLSNDVFFQVGMLTTMGLAAKNAILIVEFARQLYEQEGKPLLQATAEAARLRLRPIIMTSLAFIFGVLPMAIASGASSASQHAIGTAVVGGTLAATILAIFFVPLFYVFVVGLTGKRKSADD
B3: Pseudomonas putida KT2440: heterologous RND efflux pump, AcrB homolog from Pseudomonas putida KT2440 (protein, listed as Pseudomonas putida)
chain: MSKFFIDRPIFAWVIALVIMLVGALSILKLPINQYPSIAPPAIAIAVTYPGASAQTVQDTVVQVIEQQLNGIDNLRYVSSESNSDGSMTITATFEQGTNPDTAQVQVQNKLNLATPLLPQEVQQQGIRVTKAVKNFLLVIGLVSEDGSMTKDDLANYIVSNMQDPISRTAGVGDFQVFGAQYAMRIWLDPAKLNKFQLTPVDVKTAVAAQNVQVSSGQLGGLPALPGTQLNATIIGKTRLQTAEQFESILLKVNKDGSQVRLGDVAQVGLGGENYAVSAQFNGKPASGLAVKLATGANALDTAKALRETIKGLEPFFPPGVKAVFPYDTTPVVTESISGVIHTLIEAVVLVFLVMYLFLQNFRATIITTMTVPVVLLGTFGILAAAGFSINTLTMFAMVLAIGLLVDDAIVVVENVERVMSEEGLPPKEATKRSMEQIQGALVGIALVLSAVLLPMAFFGGSTGVIYRQFSITIVSAMGLSVLVALIFTPALCATMLKPLKKGEHHTAKGGFFGWFNRNFDRSVNGYERSVGAILRNKVPFLLAYALIVVGMIWLFARIPTAFLPEEDQGVLFAQVQTPAGSSAERTQVVVDQMREYLLKDEADTVSSVFTVNGFNFAGRGQSSGMAFIMLKPWDERSKENSVFALAQRAQQHFFTFRDAMVFAFAPPAVLELGNATGFDVFLQDRGGVGHEKLMEARNQFLAKAAQSKILSAVRPNGLNDEPQYQLTIDDERASALGVTIADINNTLSIALGASYVNDFIDRGRVKKVYIQGEPSARMSPEDLQKWYVRNGAGEMVPFSSFAKGEWTYGSPKLSRYNGVEAMEILGAPAPGYSTGEAMAEVERIAGELPSGIGFSWTGMSYEEKLSGSQMPALFALSVLFVFLCLAALYESWSIPIAVVLVVPLGIIGALIATSLRGLSNDVYFLVGLLTTIGLAAKNAILIVEFAKELHEQGRSLYDAAIEACRMRLRPIIMTSLAFILGVVPLTIASGAGAGSQHAIGTGVIGGMISATVLAIFWVPLFFVAVSSLFGSKEPEKDVTPENPRYEAGQ

Test system: E. coli DH1 ΔacrAB
Assay: Survival test of heterologous efflux pump library in 1-hexene saturated atmosphere
Assay type: cell-based
Conditions: FIG. 7
Description: FIG. 7: Impact of homologous pumps on growth in presence of 1-hexene. Survival test of E. coli DH1 ΔacrAB producing either the AcrAB wild type or AcrAB homologs in a 1-hexene saturated atmosphere was performed. One dilution of cultures (10^6 cells) was spotted on agar plate. […] From left to right and from top to bottom of the picture, are culture of strains producing the pumps A. vinelandii (YP_002797425), A. vinelandii (MexF), A. vinelandii (YP_002801502), P. putida (TtgB), P. putida (NP_745594), P. putida (MexF), P. putida (NP_743067), P. aeruginosa (MexB), P. aeruginosa (NP_250708), P. aeruginosa (MexF), P. aeruginosa (NP_253065), P. fluorescens (YP_258460), P. fluorescens (YP_260376), P. fluorescens (YP_258159), P. fluorescens (YP_258289), R. metallidurans (YP_586997), R. melallidurans (YP_583276), R. metallidurans (YP_583852), M. aqueolei (YP_960752), M. aqueolei (YP_957870), P. syringae (YP_276144), P. syringae (YP_275089), P. syringae (MdtB), P. syringae (YP_273025), P. syringae (YP_273463), P. syringae (YP_272632), G. metallireducens (YP_383777), G. metallireducens (YP_384620), G. metallireducens (YP_385464), G. metallireducens (YP_384608), G. metallireducens (YP_386066), B. pertussis (NP_880739), D. vulgaris (YP_009662), S. putrefaciens (YP_001181626), A. borkumensis (YP_692684), B. borkumensis (YP_694242), P. haloplanktis (AcrB), S. halifaxensis (YP_001672433), S. halifaxensis (YP_001673423), S. halifaxensis (YP_001674385), E. coli (AcrEF), E. coli (AcrAB), E. coli (AcrD).
An existing library of heterologous efflux pumps in E. coli (Dunlop et al. 2011) was used to test if another pump may provide better tolerance to 1-hexene than the native E. coli AcrAB-TolC system. Using the agar plate-based method, this strain library constructed in a DH1 ΔacrAB background was tested and the survival compared in presence of 1-hexene relative to the strain expressing an equivalent plasmid-borne copy of the native acrAB genes.
To test the heterologous efflux pump library, the same method was used. […]

| Molecule | tolerance to 1-hexene relative to the native E. coli acrAB-expressing strain |
| --- | --- |
| B1 | equivalent tolerance |
| B2 | equivalent tolerance |
| B3 | equivalent tolerance |
